Data reported in the RNAGym collection of RNA variant scans (doi:10.7554/elife.90254).

B1: LINE1-full (parent)
chain: UACGUAGGUGGUUUUCCCCUGAUAGUGCUAAGGGGGCCUGGAAGUUUGGACUGGGCAGAGCUCAACACAGCGUGGCAAAGUGGCUGUGGCUAGACUGCCUCUCUGGAUUCCUCGUCACUCAGCAGGGCAUCUCUGAGAGAAAUGCC

Variants of: B1
Assay: self-cleavage, relative activity (ratio to wild type); higher = more cleavage; in vitro, sequencing; the parent is a self-cleaving ribozyme

Variant | self-cleavage
UACGUAGGUGGUUUUCCCCUGAUAGUGCUAAGGGGGCCUGGAAGUUUGGACUGGGCAGAGCUCAACACAGCGUGGCCAAGUGGCUGUGGCUAGACUGCCUCUCUGGAUUCCUCGUCACUCAGCAGGGUAUCUCUGAGAGAAAUGCC [A77C C128U] | 1.67
UACGUAGGUGGUUUUCCCCUGAUAGUGCUAAGGGGGCCUGGAAAUUUGGUCUGGGCAGAGCUCAACACAGCGUGGCAAAGUGGCUGUGGCUAGACUGCCUCUCUGGAUUCCUCGUCACUCAGCAGGGCAUCUCUGAGAGAAAUGCC [G44A A50U] | 0.94
UACGUAGGGGGUUUUCCCCUGAUAGUGCUAAGGGGGCCUGGAAGUUUGGACUGGGCAGAGCUCAACACAGCGUGGCAAAGUGGCUGUGGCUAGACAGCCUCUCUGGAUUCCUCGUCACUCAGCAGGGCAUCUCUGAGAGAAAUGCC [U9G U96A] | 0
UACGUAGGUGGUUUUCCCCUGAUAGUGCUAAGGGGGCCUGGAAGUUUGGACUGGGCAGAGCUCAACACAGCGUGGCAAAGUGGCUGUGGCUAGACUGCCUCUCUGGAUUCCUCGUCACUCAGGAGGGCAUCUCUGAGAGUAAUGCC [C123G A140U] | 1.27
UACGUAGGUGGUUUUCCCCUGAUAGUGCUAAGGGGGCCUGGAAGUUUGGACUGGGCAGAGCUCAACACAGCGUGGCAAAGUGGCUGUGGCUAGACUUCCUCUCUGGAUUCCUCGUCACUCAGCAGGGCAUCUCUGAGAGAAAUGCC [G97U] | 0.06
UACGUAGGUGGUUUUCCCCUGAUAGUGCUAAGGGGGCCUGGAAGUUUGGACUGGGCAGAGCUCAACACAGCGUGGCAAAGCGGCUGUGGCUAGGCUGCCUCUCUGGAUUCCUCGUCACUCAGCAGGGCAUCUCUGAGAGAAAUGCC [U81C A94G] | 0.37
UACGUAGGUGGUUUUCCCCUGAUAGUGCUAAGGGGGCCUGGAAGUUUGGACUGGGCAGAGCACAACACAGCGUGGCAAAGUGGCUGUGGCUAGACUGCCUCUCUGGAUUCCUCGUAACUCAGCAGGGCAUCUCUGAGAGAAAUGCC [U62A C116A] | 0.05
UACGUAGGUGGUUUUCCCCUGAUAGUGCUAAGGGGGCCUGGAAGUUUGGACUGGGCAGAGCUCAACACAGCGUGGCUAAGUGGCUGUGGCUAGACUGCCUCUCUGGACUCCUCGUCACUCAGCAGGGCAUCUCUGAGAGAAAUGCC [A77U U108C] | 1.57
UACGUAGGUGGUUUUCCCCUGAUAGUGCAAAGGGGGCCUGGAAAUUUGGACUGGGCAGAGCUCAACACAGCGUGGCAAAGUGGCUGUGGCUAGACUGCCUCUCUGGAUUCCUCGUCACUCAGCAGGGCAUCUCUGAGAGAAAUGCC [U29A G44A] | 0.61
UACGUAGGUGGCUUUCCCCUGAUAGUGCUAAGGGGGCCUGGAAGUUUGGACUGGGCAGAGCUCAACACAGCGUGGCAAAGUGGCUGUGGCUAGACUGCCUCUCUGGAUUCCUCGUCACUCAGCAGGCCAUCUCUGAGAGAAAUGCC [U12C G127C] | 1.84
UACGUAGGUGGUUUUCCCCUGAUAGUGCUAAGGGGGCCUGGAAGUUUGGACUGGGCAGAGCUCAUCACAGCGUGGCAAAGUGGCUGUGGCUAGACUGCCUCUCUGGAUUCCUCGUCACACAGCAGGGCAUCUCUGAGAGAAAUGCC [A65U U119A] | 0.21
UACGUAGGUGGUUUUCCCCUGAUAGUGCUAAGGGGGCCUGGAAGUUAGGACUGGGCAGAGCUCAACACAGCGUGGCAAAGUGGCUGUGGCUAGACUGCCUCUCUGGAUUCCUCGUCACUCAGCAGGGCAUCUCUGGGAGAAAUGCC [U47A A136G] | 1.52
UACGUAGGUGGUUUUCCCCUGAUAGUGCUAAGGGGGCCUGGAAGUUUGGACUGGGCAGAGCUCAACACAGCGUGGCAAAGUGGCAGUGGCUAGACUGCCUCUCUGGAUUCCUCGUCACUCAGCAGGGCAUCUCUGAGAGAAAAGCC [U85A U143A] | 0.08
UACGUAGGUGGUUUUCCCCUGAUAGUGCUAAGGGGGCCUGGAAGUUUGGACUGGGCAGAGCUCAACACAGCGUGGCAAAGUGGCUGUGGCUAGACUGCCUCUCUGGAUUCCUCGUCACUCAGCAGGGCAUCUCUGAGAGGAACGCC [A140G U143C] | 0.26
UACGUAGGUGGUUUUCCCCUGAUAGUGCUAAGGGGGCCUGGAAGUUUGGACUGGGCAGAGCUCAACACAGCGUGGCAAAGUGGCUGUGGCUAGACUGCCUCUCUGGAUUCCUCGCCACUCGGCAGGGCAUCUCUGAGAGAAAUGCC [U115C A121G] | 1.42
UACGUAGGUGGUUUUCCCCUGAUAGUGCUAAGGGGGCCUGGAAGUUUGGACUGGGCAGAGCUCAACACAGCGUGGCAAAGUGGCUGUGGCUAGACUGCCUCACUGGAUUCCUCGUCACUUAGCAGGGCAUCUCUGAGAGAAAUGCC [U102A C120U] | 1.65
UACGUAGGUGGUUUUCCCCUGAUAGUGCUAAGGGGCCCUGGAAGCUUGGACUGGGCAGAGCUCAACACAGCGUGGCAAAGUGGCUGUGGCUAGACUGCCUCUCUGGAUUCCUCGUCACUCAGCAGGGCAUCUCUGAGAGAAAUGCC [G36C U45C] | 1.05
UACGUAGGUGGUUUUCCCCUGAUAGUGCUGAGGGGGCCUGGAAGUUUGGACUGGGCAGAGCUCAACACAGCGUGGCAAAGUGGCUGAGGCUAGACUGCCUCUCUGGAUUCCUCGUCACUCAGCAGGGCAUCUCUGAGAGAAAUGCC [A30G U87A] | 0.16
UACGUAGGUGGUUUUCCCCUGAUAGUGCUAAGGGGGCCUGGAAGUUCGGCCUGGGCAGAGCUCAACACAGCGUGGCAAAGUGGCUGUGGCUAGACUGCCUCUCUGGAUUCCUCGUCACUCAGCAGGGCAUCUCUGAGAGAAAUGCC [U47C A50C] | 0.94
